Patent US8975044B2, “Polynucleotides encoding for frizzled-binding agents and uses thereof” (OncoMed Pharmaceuticals, Inc., priority 2008, dated 2015)

B1: 44R24: anti-FZD5/8 IgG antibody, VH SEQ ID NO:85, VL SEQ ID NO:86; ATCC deposit no. PTA-10311 (antibody, V domains shown)
VH: EVQLVESGGGLVQPGGSLRLSCAASGFTFSSYYITWVRQAPGKGLEWVSTISYSSSNTYYADSVKGRFTISRDNSKNTLYLQMNSLRAEDTAVYYCARSIVFDYWGQGTLVTVSS
VL: DIELTQPPSVSVAPGQTARISCSGDALGNRYVYWYQQKPGQAPVLVIPSGIPERFSGSNSGNTATLTISGTQAEDEADYYCGSWDTRPYPKYVFGGGTKLTVLG
modifications: 44R24 VH; 44R24 VL
notes: ATCC deposit no; PTA-10311
B2: 18R5: human anti-FZD antibody; VH SEQ ID NO:10 (as 18R8), VL SEQ ID NO:14; binds FZD1, 2, 5, 7, 8 (antibody, V domains shown)
VH: EVQLVESGGGLVQPGGSLRLSCAASGFTFSHYTLSWVRQAPGKGLEWVSVISGDGSYTYYADSVKGRFTISSDNSKNTLYLQMNSLRAEDTAVYYCARNFIKYVFANWGQGTLVTVSS
VL: DIELTQPPSVSVAPGQTARISCSGDNIGSFYVHWYQQKPGQAPVLVIYDKSNRPSGIPERFSGSNSGNTATLTISGTQAEDEADYYCQSYANTLSLVFGGGTKLTVLG
modifications: 18R5/18R8 heavy chain variable region (VH); 18R5 light chain variable region (VL)
B3: 18R8: human anti-FZD antibody from phage display; VH SEQ ID NO:10, VL SEQ ID NO:12; binds FZD1, 2, 5, 7, 8 (antibody, V domains shown)
VH: B2 VH
VL: DIELTQPPSVSVAPGQTARISCSGDKLGKKYASWYQQKPGQAPVLVIYEKDNRPSGIPERFSGSNSGNTATLTISGTQAEDEADYYCSSFAGNSLEVFGGGTKLTVLG
modifications: 18R5/18R8 heavy chain variable region (VH); 18R8 light chain variable region (VL)

Columns and labels:
[1] = tested on: Wnt signaling; test: Inhibition of Wnt3a-induced Super Top Flash reporter activity in STF-293 cells; type: cell-based, human; conditions: for IC50: Wnt3a-conditioned medium, 20-0.0003 μg/ml, triplicate
Description: STF cells are Human Embryonic Kidney (HEK)-293 cells stably transfected with the Super Top Flash (STF) reporter cassette in which the expression of the Luciferase (Luc) reporter gene is regulated by multiple copies of the TCF binding site upstream of a minimal promoter. A low basal Luc expression can be induced 30-60 fold in response to Wnt3a, providing a large window to assess the inhibitory activity of the anti-Fzd Abs.
To assess the mAbs, STF-293 cells were grown in DMEM-10% FBS. On day 1, 10,000 cells were plated per well in 96-well Optical Bottom White plates (Nunc #165306). The cells were incubated O.N. at 37° C. and 5% CO2. On day 2, the Abs to be tested were diluted to a final concentration of […] using culture medium. Seven 5-fold serial dilutions were performed. The STF-293 cells culture medium was replaced with a mixture containing 50 μA Ab dilution, 25 μA Wnt3a-conditioned medium from Wnt3a stable L-cells and 25 μA DMEM-10% FBS. For each Ab, the final concentrations tested were 20, 4, 0.8, 0.16, 0.03, 0.006, 0.0013, 0.0003 μg/ml. Each Ab concentration was tested in triplicate. A human anti-hapten Ab, LZ1, was used as negative control Ab. A non-Wnt3a-conditioned medium from parental L-cells was used as negative control inducer. The plates were returned to the incubator. Luciferase activity was measured on day 3, using Promega Steady Glo kit (VWR #PAE2550-A) according to the manufacturer specifications. The results were expressed in photons per sec. GraphPad Prism software was used to graph and analyze the data. Luciferase activities were plotted as a function of Ab concentration to establish dose-response curves. A non-linear regression was applied to the numbers to fit the curve and calculate IC50s.

[2] = tested on: Muc16; test: Muc16 immunohistochemistry on treated OMP-PN13 tumors; type: in vivo, NOD/SCID mice; conditions: 3 doses of 10 mg/kg IP over 12 days; vs LZ1
Description: (§1) Frozen OMP-PN13 tumor cells that have been passaged twice in mice were obtained from Oncomed's tumor bank. They were thawed and injected subcutaneously into the left flank of NOD/SCID mice immediately following thawing. ˜ 25,000 viable cells were injected per animal. The mice were monitored weekly for tumor growth. After their onset, the size of the tumors was measured once weekly by caliper. 200-300 mm^3 tumor-bearing mice were dispatched in treatment groups that each contained 5 animals. […] Ab treatment was initiated the day after randomization. LZ1 was used as the negative control Ab. 3 doses of 10 mg/kg of Ab were administered via intra-peritoneal injection over a 12-day period. Mice were euthanized 24 hours after the last injection. Tumor, duodenum and liver were harvested.
Tumor tissues were fixed in formalin for paraffin embedding and sectioning. Muc16 detection was performed by immunohistochemical (1HC) to monitor the appearance of Mucin-producing cells. Mucins are specific for a subtype of differentiated cells in the pancreas, and as such are used as differentiation markers in the tumor model.
Formalin-fixed, paraffin-embedded (FFPE) sections were de-parrafinized. The slides were first de-parrafinized by sequential treatment with xylene twice for 5 minutes each. […]

[3] = tested on: Wnt target genes; test: qPCR of Wnt target genes in tumor of OMP-PN13-bearing mice; type: in vivo, NOD/SCID mice
Description: as §1
Total RNAs were also extracted from tumor, duodenum and liver for Wnt target gene expression analyses using qPCR.
Tissues were immediately transferred into RNAlater (QIAGEN) at the time of harvest. RNA was extracted using the QIAGEN RNeasy for Fibrous Tissue mini kit according to the manufacturer instructions. […] All 5 tumors of each treatment group were analyzed. […] ABI SDS 2.2.1 software was used to analyze the data and calculate DeltaCt values that were converted into relative quantities. […] Fold inhibition factors were then calculated relative to control antibody (LZ1).

[4] = tested on: MMTV-WNT1 tumor derived cells; test: MMTV-WNT1 tumor growth; type: in vivo, NOD/SCID mice; conditions: 10 mg/kg intra-peritoneal twice weekly; p=0.002
Description: Female NOD/SCID mice were injected at age 5-7 weeks with 50,000 mouse mammary tumor virus (MMTV)-WNT1 tumor derived cells in the upper right mammary fat pad. […] Tumors from these mice were dissociated and these dissociated tumor cells used for tumor propagation purposes. Mice with tumor cells implanted in the mammary fat pad were monitored twice a week. Once tumors were palpable, tumors were measured twice weekly and tumor volume was determined using the formula ½(a×b^2); where a=length, and b=breadth. Data are expressed as mean and mean±S.E.M. Group means were compared using Student's two-tailed, unpaired t test. […] On day 19, mice with average tumor volume of 44 mm^3 were randomized into 2 groups of 10 animals each. Animals were injected with either control antibody, or 18R5 IgG antibody (10 mg/kg). Administration of the antibodies was performed via injection into the intra-peritoneal cavity, twice weekly.

Molecule | IC50 relative to 18R5's [1] | IC50 [1] | Muc16 staining [2] | tumor Axin2 ([3]; fold relative to control antibody LZ1, 3 doses of 10 mg/kg over 12 days) | tumor growth compared to control antibody [4] | inhibition of Wnt target gene in tumor ([3]; relative to LZ1)
B1 | 13 fold | 34.4 nM | slightly higher than in the LZ1-treated tumors | −1.8x |  | 
B2 |  | 2.73 nM | higher levels of staining |  | completely abolished tumor growth | 2.3 ×
B3 |  |  |  |  | virtually eliminated | 
